Data as given in paper PMC10589346, “Structural basis for recruitment of TASL by SLC15A4 in human endolysosomal TLR signaling” (Nature Communications, 2023).
One block for each binder: values may come before it.

How the values were obtained:
[1] = target: T1, human SLC15A4 with C-terminus flag-tag (co-expressed with TASL(1–20)-EGFP for cryo-EM) (human, UniProt Q8N697 1-577, N-glycosylation at N436); experiment: cryo-EM structure; SLC15A4-Flag and TASL(1–20)-EGFP-twin Strep co-expressed in HEK293F, complex purified by Strep-Tactin and SEC; 25 mM HEPES pH 7.4, 150 mM NaCl, 0.003% LMNG, 0.0003% CHS; 10–15 mg/ml; 3.03 Å, no symmetry imposed; details: both partners purified
T1 construct: human SLC15A4 (solute carrier family 15 member 4, PHT1), codon-optimized full-length cDNA, Uniprot Q8N697; pcDNA3.1 vector; residues 1–31 not visible in the map; also called PHT1; Solute carrier family 15 member 4; source: HEK293F, co-transfected with TASL(1–20)-EGFP, complex purified (Strep-Tactin, SEC) in LMNG/CHS; not shown: Flag, C-terminal, kept

[2] = target: the molecule itself; experiment: cryo-EM structure; apo SLC15A4 (twin Strep-tag) from HEK293F in LMNG/CHS micelles; 25 mM HEPES pH 7.4, 150 mM NaCl; monomeric and dimeric particles found, dimer solved at 2.93 Å
[3] = target: the molecule itself; experiment: cryo-EM structure; SLC15A4-ALFA tag co-expressed with ALFA nanobody in HEK293F, complex purified (Strep-Tactin, SEC) in LMNG/CHS; monomeric and dimeric particles found, monomer solved at 3.25 Å

T1 sequence (Q8N697 whole entry, the tested form may be a part): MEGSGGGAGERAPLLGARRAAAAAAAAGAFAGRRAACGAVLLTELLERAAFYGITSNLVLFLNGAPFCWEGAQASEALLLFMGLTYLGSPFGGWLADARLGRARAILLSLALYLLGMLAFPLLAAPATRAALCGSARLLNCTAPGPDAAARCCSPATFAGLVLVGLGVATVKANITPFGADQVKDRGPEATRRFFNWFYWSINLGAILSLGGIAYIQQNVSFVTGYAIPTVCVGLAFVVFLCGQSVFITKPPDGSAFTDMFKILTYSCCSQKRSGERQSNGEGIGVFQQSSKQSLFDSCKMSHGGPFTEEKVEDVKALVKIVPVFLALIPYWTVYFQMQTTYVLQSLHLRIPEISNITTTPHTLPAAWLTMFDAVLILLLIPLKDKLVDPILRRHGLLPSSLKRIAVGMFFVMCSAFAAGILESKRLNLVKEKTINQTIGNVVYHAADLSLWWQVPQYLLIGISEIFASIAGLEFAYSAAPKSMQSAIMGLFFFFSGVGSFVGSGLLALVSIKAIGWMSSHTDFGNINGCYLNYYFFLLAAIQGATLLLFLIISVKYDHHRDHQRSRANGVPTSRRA

stoichiometry N [1]: 1
B1: TASL(1–20)-EGFP with C-terminus twin Strep-tag (domain or fragment, human, UniProt Q9HAI6 1-20, looked up)
chain: MLSEGYLSGLEYWNDIHWSC
notes: pCAG vector; also called CXorf21; source: HEK293F, co-transfected with SLC15A4-Flag, complex purified (Strep-Tactin, SEC) in LMNG/CHS; not shown: EGFP, C-terminal, kept; twin Strep-tag, C-terminal, kept

B2: human full-length SLC15A4 with C-terminus tandem twin Strep-tag (natural protein)
chain: not shown
modifications: N-glycosylation at N436
notes: human SLC15A4 (solute carrier family 15 member 4, PHT1), codon-optimized full-length cDNA, Uniprot Q8N697; also called apo SLC15A4; C-terminal strep-tagged SLC15A4; source: HEK293F, transfected, purified (Strep-Tactin, SEC) in LMNG/CHS; also co-expressed in HEK293F with TASL(1–20&207–301)-Flag; not shown: twin Strep-tag, C-terminal, kept
stoichiometry N [2]: 2

B3: human SLC15A4 with the 253–303 residues replaced by an ALFA tag (natural protein)
chain: not shown
modifications: N-glycosylation at N436
notes: human SLC15A4, Uniprot Q8N697, from the start to residue 252; ALFA tag, put in place of residues 253–303 (loop between TM6 and TM7); human SLC15A4, Uniprot Q8N697, from residue 304 to the end; The complex was purified on Strep-Tactin by a 'similar protocol'; also called ALFA tagged SLC15A4; SLC15A4-ALFA tag; source: HEK293F, co-transfected with ALFA nanobody, complex purified (Strep-Tactin, SEC) …
binding result [3]: binds
